According to patent US20190048049A1 (CERENIS THERAPEUTICS, published 2019):
Ends that are not written are not given here.

Target: T1, ApoA-I (human, UniProt P02647 25-267)
T1 construct: Stands in Cargomers as a monomer or multimer (1-8 molecules); also called apolipoprotein A-I; ApoA1
Test: size exclusion chromatography of ApoA-I:M30 Cargomers, with increased temperature

T1 sequence (P02647 25-267 limits assumed): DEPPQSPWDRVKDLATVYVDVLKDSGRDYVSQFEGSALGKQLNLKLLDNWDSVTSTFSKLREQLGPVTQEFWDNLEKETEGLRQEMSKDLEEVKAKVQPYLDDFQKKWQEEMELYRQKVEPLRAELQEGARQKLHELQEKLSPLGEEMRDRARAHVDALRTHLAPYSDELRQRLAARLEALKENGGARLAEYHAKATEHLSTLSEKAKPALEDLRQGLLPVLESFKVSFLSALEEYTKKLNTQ

binding result: binds
B1: M30 tumor antigen peptide coupled to PDP-PE lipid (peptide)
peptide: CSSVDWENVSPELNSTDQ
modifications: also: reacted with PDP-PE lipid, residue of attachment not given here
notes: Lipid-anchored peptide cargo of ApoA-I Cargomers (ApoA-I:TA molar ratios 1:2 and 1:4); also called TA peptide M30
